Data from patent US20240158497A1 (published 2024).

Legend:
[1] = biological target: T1, human gp130 extracellular domain (E23-E619) with C-terminal mouse IgG2a Fc (human); assay: blocking ELISA, 2.5 nM hGP130-mFc on plate-bound CNTFR/CNTF complex
T1 construct: dimeric; also called hGP130-mFc; human GP130-mFc
T1 chain: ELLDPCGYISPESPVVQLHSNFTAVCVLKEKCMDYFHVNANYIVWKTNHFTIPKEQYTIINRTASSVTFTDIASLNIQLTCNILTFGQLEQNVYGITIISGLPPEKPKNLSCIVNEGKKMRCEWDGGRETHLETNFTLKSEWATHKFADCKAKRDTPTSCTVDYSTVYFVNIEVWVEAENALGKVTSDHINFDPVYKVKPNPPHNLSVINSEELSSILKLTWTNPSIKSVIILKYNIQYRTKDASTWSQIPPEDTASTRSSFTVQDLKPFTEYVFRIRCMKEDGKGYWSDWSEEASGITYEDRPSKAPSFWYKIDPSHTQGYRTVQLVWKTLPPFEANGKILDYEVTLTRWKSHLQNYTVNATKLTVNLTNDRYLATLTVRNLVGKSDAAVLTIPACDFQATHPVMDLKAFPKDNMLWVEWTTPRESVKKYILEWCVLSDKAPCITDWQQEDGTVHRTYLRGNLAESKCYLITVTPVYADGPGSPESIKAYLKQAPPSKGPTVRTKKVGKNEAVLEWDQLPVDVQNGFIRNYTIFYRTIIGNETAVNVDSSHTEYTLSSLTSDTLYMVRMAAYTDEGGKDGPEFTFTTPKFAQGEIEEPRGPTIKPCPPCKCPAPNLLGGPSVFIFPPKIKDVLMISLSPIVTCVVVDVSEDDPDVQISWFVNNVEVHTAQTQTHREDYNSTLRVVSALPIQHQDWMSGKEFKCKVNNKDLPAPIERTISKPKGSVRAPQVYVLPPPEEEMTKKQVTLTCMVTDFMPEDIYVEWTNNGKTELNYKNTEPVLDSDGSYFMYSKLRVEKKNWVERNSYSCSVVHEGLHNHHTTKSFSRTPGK
Procedure: The experiment was carried out using the following procedure. Human CNTFRα was coated at a concentration of […] in HBSS on a 96-well microtiter plate overnight at 4° C. […] Human CNTF at a concentration of 1 μg/ml in HBSS was added to the plate bound CNTFRα for 1 hour at room temperature. In separate dilution plates, a constant amount of 2.5 nM of human GP130-mFc protein was titrated with antibodies ranging from 3.4 pM to 200 nM in serial dilution and with no antibody present. These solutions were incubated for 1 hour at room temperature (RT) and subsequently transferred to the microtiter plates with CNTFRα/CNTF complex without washing. The plates were incubated for 2 hours at RT, washed with PBST buffer, and plate-bound hGP130-mFc was detected with an anti-mFc polyclonal antibody conjugated with horseradish peroxidase (HRP) (Jackson ImmunoResearch Inc). Samples were developed with a TMB solution (BD Biosciences, substrate A and B mixed at 1:1 ratio as per manufacturer's instructions) to produce a colorimetric reaction and then neutralized with 1M sulfuric acid before measuring absorbance at 450 nm on a Victor X5 plate reader.
Data analysis was performed using a sigmoidal dose-response model within Prism™ software (GraphPad). […] Percent blockade at maximum concentration tested was calculated as an indicator of the ability of the antibodies to block binding of GP130 to CNTFRα/CNTF on the plate as determined from the dose curve. The ratio of the reduction in signal observed in the presence of the highest tested concentration of 200 nM antibody, relative to the difference between the signal with 2.5 nM GP130 with no antibody (0% blocking) and the background signal from HRP-conjugated secondary antibody alone (100% blocking), was subtracted from 100% blocking.

[2] = biological target: T2, human gp130 expressed endogenously on IMR-32/Stat3-luc cells (human, UniProt P40189 23-918); assay: cell-based or functional assay
T2 sequence: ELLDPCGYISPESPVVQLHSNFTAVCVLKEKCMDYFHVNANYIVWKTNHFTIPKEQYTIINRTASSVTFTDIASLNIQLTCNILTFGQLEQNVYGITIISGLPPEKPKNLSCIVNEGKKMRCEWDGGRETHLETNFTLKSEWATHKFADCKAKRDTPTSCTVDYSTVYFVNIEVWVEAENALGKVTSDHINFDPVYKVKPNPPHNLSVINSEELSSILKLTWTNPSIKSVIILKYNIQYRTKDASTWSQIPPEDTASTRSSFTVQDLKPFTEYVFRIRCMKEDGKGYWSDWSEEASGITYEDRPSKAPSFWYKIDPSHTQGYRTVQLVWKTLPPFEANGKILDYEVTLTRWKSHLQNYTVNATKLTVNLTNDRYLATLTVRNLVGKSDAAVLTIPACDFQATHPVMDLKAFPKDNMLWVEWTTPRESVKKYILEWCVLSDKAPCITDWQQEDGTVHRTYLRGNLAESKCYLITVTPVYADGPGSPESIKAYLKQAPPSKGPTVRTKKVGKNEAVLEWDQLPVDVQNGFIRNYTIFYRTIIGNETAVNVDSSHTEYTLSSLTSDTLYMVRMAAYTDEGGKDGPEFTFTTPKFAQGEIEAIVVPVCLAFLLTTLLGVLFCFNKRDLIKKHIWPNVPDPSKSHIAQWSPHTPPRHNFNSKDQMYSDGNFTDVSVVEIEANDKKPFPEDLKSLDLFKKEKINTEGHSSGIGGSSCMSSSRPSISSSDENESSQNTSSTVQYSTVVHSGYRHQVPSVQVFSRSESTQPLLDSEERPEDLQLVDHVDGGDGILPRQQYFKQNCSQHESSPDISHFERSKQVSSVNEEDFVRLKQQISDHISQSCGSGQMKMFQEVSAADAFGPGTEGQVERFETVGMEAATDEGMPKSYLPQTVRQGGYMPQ

B1: MAb16682 (antibody, V domains shown)
VH: EVQLVESGGGLVQPGGSLRLSCAASGFTFSTYWMNWVRQAPGKGLEWVANIKEDGSEKYYVDSVKGRFTISRDNAKNSLYLQMNSLRAEDTAVYYCAREGFGVVTYIWGQGTMVTVSS
VL: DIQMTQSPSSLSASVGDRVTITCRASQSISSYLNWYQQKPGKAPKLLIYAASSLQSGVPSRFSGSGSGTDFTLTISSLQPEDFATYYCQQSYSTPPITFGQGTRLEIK
notes: hIgG4 isotype control used
Max Blocking of Antibody at 200 nM (%) [1]: -3.39%
% inhibition; OSM (100 pM) [2]: 23%
IC50 [M]; OSM (100 pM) [2]: > 1e-07 M

B2: MAb16618 (antibody, V domains shown)
VH: QVQLQESGPGLVKPSETLSLTCTVSGGSISNYYWTWIRQPPGKGLEWIGHISNSGTTNYNPSLKSRVTISVDTSKNQFSLKLTSVTAADTAVYYCARLPLGIAAVDTDYYYYFGMDVWGQGTTVTVSS
VL: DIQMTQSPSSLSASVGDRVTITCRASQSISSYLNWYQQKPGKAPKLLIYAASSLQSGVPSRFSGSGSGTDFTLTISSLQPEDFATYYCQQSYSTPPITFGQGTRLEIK
notes: hIgG4 isotype control used
IC50 [1]: 2.37 nM
Max Blocking of Antibody at 200 nM (%) [1]: 86.7%
% inhibition; CNTF (20 pM) [2]: 33%
% inhibition; LIF (20 pM) [2]: 40%
% inhibition; OSM (100 pM) [2]: 52%
IC50 [M]; CNTF (20 pM) [2]: > 1e-07 M
IC50 [M]; LIF (20 pM) [2]: > 1e-07 M
IC50 [M]; OSM (100 pM) [2]: > 5e-08 M

B3: MAb16623 (antibody, V domains shown)
VH: EVQLVESGGGLVQPGGSLRLSCAASGLTFSSYEMNWVRQAPGKGLEWVSHISSAGSTKYYADSVKGRFTISRDNAKNSLFLQMNSLRAEDTAIYYCAGYNYAYYYFGVDVWGQGTTVTVSS
VL: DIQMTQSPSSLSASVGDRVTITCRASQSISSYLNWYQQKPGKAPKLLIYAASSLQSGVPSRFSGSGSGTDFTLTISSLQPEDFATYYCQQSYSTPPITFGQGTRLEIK
notes: hIgG4 isotype control used
Max Blocking of Antibody at 200 nM (%) [1]: -49.2%
% inhibition; CNTF (20 pM) [2]: 22%
IC50 [M]; CNTF (20 pM) [2]: > 1e-07 M

B4: MAb16636 (antibody, V domains shown)
VH: QLQLQESGPGLVKPSETLSLICTVSGGSISSNNYYWGWIRQPPGKGLEWIGNLYGSGSTYYNPSLKSRVTISVDTSKNQFSLKLSFVTAADTAVYHCARWDTNGGAFDIWGQGTMVTVSS
VL: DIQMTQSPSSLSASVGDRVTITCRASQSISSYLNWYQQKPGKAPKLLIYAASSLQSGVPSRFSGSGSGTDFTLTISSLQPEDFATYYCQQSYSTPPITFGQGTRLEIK
notes: hIgG4 isotype control used
IC50 [1]: 1.1 nM
Max Blocking of Antibody at 200 nM (%) [1]: 94.8%
% inhibition; CNTF (20 pM) [2]: 62%
% inhibition; LIF (20 pM) [2]: 76%
% inhibition; OSM (100 pM) [2]: 82%
IC50 [M]; CNTF (20 pM) [2]: > 1e-08 M
IC50 [M]; LIF (20 pM) [2]: > 1e-08 M
IC50 [M]; OSM (100 pM) [2]: > 1e-08 M

B5: MAb16666 (antibody, V domains shown)
VH: EVQLVESGGGLVQSGGSLRLSCAASGFTFSRYEMNWVRQAPGKGLEWVAYISNTGTTRDYSDSVKGRFTISRDNAKNSLYLQMSSLRVEDTAVYYCVREKFSGTSDWFDPWGQGTLVTVSS
VL: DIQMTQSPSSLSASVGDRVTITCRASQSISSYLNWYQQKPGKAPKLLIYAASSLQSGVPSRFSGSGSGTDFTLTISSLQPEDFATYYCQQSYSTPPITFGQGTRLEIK
notes: hIgG4 isotype control used
Max Blocking of Antibody at 200 nM (%) [1]: 103%
% inhibition; CNTF (20 pM) [2]: 95%
IC50 [M]; CNTF (20 pM) [2]: 7.1e-10 M

B6: MAb16673 (antibody, V domains shown)
VH: EVQLVQSGAEVKKPGESLKISCKGSGYSFTSYWIDWVRQMPGKGLEWMGIIYPDDSDTRYSPSFQGQVTMSVDKSISTAYLQWSSLKASDTAIYYCARHERGIVEAGTDYYYYYGMDVWGQGTTVTVSS
VL: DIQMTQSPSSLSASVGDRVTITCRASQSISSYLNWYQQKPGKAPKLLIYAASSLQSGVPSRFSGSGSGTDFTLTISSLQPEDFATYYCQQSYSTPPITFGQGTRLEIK
notes: hIgG4 isotype control used
IC50 [1]: 2.37 nM
Max Blocking of Antibody at 200 nM (%) [1]: 104%
% inhibition; CNTF (20 pM) [2]: 46%
% inhibition; LIF (20 pM) [2]: 52%
% inhibition; OSM (100 pM) [2]: 62%
IC50 [M]; CNTF (20 pM) [2]: > 1e-07 M
IC50 [M]; LIF (20 pM) [2]: 9e-09 M
IC50 [M]; OSM (100 pM) [2]: > 5e-08 M

B7: MAb16622 (antibody, V domains shown)
VH: EVQLVESGGGVVRPGGSLRLSCTASGFTFDDYGMSWVRQAPGKGLEWVSGINWNGGRTEYADAVKGRFIISRDNAKNSLYLQMNSLRAEDTALYFCARTELRWDYWGQGTLVTVSS
VL: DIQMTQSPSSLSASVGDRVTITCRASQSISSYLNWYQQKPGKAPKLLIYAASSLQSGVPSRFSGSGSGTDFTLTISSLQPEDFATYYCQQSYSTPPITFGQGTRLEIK
notes: hIgG4 isotype control used
Max Blocking of Antibody at 200 nM (%) [1]: -84.1%

B8: MAb16637 (antibody, V domains shown)
VH: QVQLVQSGAEVKKPGASVKVSCKASGYTFTSLGISWVRQAPGQGLEWMGWISAYSGNRDYAQKFQGRVTMTTDTSTSTAYMELRSLRSDDTAVYYCARSLRFDYWGQGTLVTVSS
VL: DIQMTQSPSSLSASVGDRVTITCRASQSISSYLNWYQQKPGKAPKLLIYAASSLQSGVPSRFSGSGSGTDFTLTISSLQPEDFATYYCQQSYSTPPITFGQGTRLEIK
notes: hIgG4 isotype control used
Max Blocking of Antibody at 200 nM (%) [1]: -38.9%

B9: MAb16656 (antibody, V domains shown)
VH: EVQLVESGGGLVQPGRSLRLSCAASGFTLDDFAMHWVRQAPGKGLEWVSGISWNSGNIGYADSVKGRFTISRDNARNSLYLQMNSLRAEDTALYYCTSGYYLYYAMDVWGQGTTVTVSS
VL: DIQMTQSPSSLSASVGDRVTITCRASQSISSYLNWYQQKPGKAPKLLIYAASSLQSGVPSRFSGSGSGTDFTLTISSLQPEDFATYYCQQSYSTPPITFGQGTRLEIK
notes: hIgG4 isotype control used
Max Blocking of Antibody at 200 nM (%) [1]: -24.7%

B10: MAb16659 (antibody, V domains shown)
VH: QVQLVQSGPEVKKPGSSVKVSCKASGGTIDRNEITWVRQAPGQGLEWMGVIIPILGEAHYERKFQGRLTITMDESTSTAYMELSNLRSEDTAVYYCARERAARGYLDYWGQGTLVTVSS
VL: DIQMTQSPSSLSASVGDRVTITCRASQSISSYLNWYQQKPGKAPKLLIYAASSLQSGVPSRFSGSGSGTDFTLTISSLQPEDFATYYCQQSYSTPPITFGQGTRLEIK
notes: hIgG4 isotype control used
Max Blocking of Antibody at 200 nM (%) [1]: -18.8%

B11: MAb16662 (antibody, V domains shown)
VH: EVQLVESGGGLVQPGGSLRLSCTASGFTFSNYAIFWVRQAPGKGLEYVSGISNNGVTKYYADSVRDRFTISRDNSRNTVSIQMDSLRTEDMAVYYCARENWGSDDGFDIWGQGTMVTVSS
VL: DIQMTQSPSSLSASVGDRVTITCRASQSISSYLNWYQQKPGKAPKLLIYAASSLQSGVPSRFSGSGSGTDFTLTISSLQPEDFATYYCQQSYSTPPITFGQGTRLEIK
notes: hIgG4 isotype control used
IC50 [1]: 6.51 nM
Max Blocking of Antibody at 200 nM (%) [1]: 81.9%

B12: MAb16664 (antibody, V domains shown)
VH: QVQLVQSGTEVKKPGSSVKVSCKASGGTFSTYPINWVRQAPGQGLEWMGGIIPIFGTASYAQKFQGRVAITTDESTSTAYMELNSLRSEDTAVYYCARERPNWGSNDYWGQGTLVTVSS
VL: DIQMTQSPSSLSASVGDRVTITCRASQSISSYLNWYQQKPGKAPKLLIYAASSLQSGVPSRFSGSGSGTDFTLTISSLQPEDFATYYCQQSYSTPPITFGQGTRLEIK
notes: hIgG4 isotype control used
Max Blocking of Antibody at 200 nM (%) [1]: -46.5%

B13: MAb16665 (antibody, V domains shown)
VH: QVQLVESGGGVVQPGRSLRLACAASGFTFRSYGMHWVRQAPGKGLEWVAVIWYDGSNKYYTDSVKGRFTISRDNSKNTLYLQMNSLRAEDTAMYYCAIDKWATVTTYLFDYWGQGTLVTVSS
VL: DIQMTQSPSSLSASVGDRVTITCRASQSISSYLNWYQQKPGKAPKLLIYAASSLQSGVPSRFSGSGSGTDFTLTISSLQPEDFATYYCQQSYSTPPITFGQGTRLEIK
notes: hIgG4 isotype control used
Max Blocking of Antibody at 200 nM (%) [1]: -47.1%

B14: MAb16669 (antibody, V domains shown)
VH: EVQLVESGGGLVQPGGSLRLSCAASGFTFSSYAMNWVRQAPGKGLEWVSAISGSGDSTYYTDSVKGRFTISRDNSKNTLYLQMNTLRAEDTAVYYCAKEEIVMLVGATPGWFDPWGQGTLVTVSS
VL: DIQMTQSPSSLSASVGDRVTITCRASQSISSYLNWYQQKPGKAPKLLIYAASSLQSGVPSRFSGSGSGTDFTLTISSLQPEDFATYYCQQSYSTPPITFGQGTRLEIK
notes: hIgG4 isotype control used
IC50 [1]: 12.3 nM
Max Blocking of Antibody at 200 nM (%) [1]: 47.1%

B15: MAb16676 (antibody, V domains shown)
VH: QVQLVQSGAEVMKPGASVKVSCRASGYTFSSYDINWVRQAPGQGLEWMGWISTATGNTNYPQKVQGRVTMTTDTSTNTAYMELRSLRSDDTAVYYCTREGNSKGWLDPWGQGTLVTVSS
VL: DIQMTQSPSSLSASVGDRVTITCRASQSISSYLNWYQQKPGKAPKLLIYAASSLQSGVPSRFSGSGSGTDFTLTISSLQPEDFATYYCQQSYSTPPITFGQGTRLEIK
notes: hIgG4 isotype control used
Max Blocking of Antibody at 200 nM (%) [1]: -15.4%

B16: MAb16683 (antibody, V domains shown)
VH: QVQLVESGGGLVKPGGSLRLSCAASGFTFSDYYMTWIRQTPGKGLDWVSYISSSGTNKYNADSVKGRFTISRDNAKNSLYLQMNSLRAEDTAVYYCVRDPPWGMDVWGQGTTVTVSS
VL: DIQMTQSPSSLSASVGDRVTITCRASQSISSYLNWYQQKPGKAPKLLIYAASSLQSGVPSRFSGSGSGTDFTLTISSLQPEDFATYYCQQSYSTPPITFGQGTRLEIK
notes: hIgG4 isotype control used
Max Blocking of Antibody at 200 nM (%) [1]: -22.8%

B17: MAb16614 (antibody, V domains shown)
VH: QVQLVESGGGVVQPGGSLRLSCAASGFTFSTYDIHWVRQAPGKGLEWVAVISFDGSNRNYGDSVKGRFTISRDNSDNTLFLEMNNLRFEDTAVYYCAKEGYGVDFQHWGQGTLVTVSS
VL: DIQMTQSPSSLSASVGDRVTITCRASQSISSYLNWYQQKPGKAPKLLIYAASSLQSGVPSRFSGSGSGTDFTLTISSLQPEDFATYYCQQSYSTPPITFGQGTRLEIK
notes: hIgG4 isotype control used
Max Blocking of Antibody at 200 nM (%) [1]: -14.8%
